The Human Domainome abundance scans (Beltran et al. 2025)
± gives the uncertainty stated by the source.

B1: Protein piccolo, residues 1058 to 1114; numbered along this chain, Q9Y6V0 (parent)
chain: TCPLCKTELNIGSKDPPNFNTCTECKNQVCNLCGFNPTPHLTEIQEWLCLNCQTQRA

Variants of: B1
Test: abundance fitness (aPCA) (normalised: wild type 0, dead -1); higher = more abundant; growth selection in yeast, the domain comes from the species named
Settings: Homo sapiens

Abundance fitness of substitutions, site by site:
E43: T -0.091 ± 0.18, N -0.123 ± 0.38, M -0.191 ± 0.18, F -0.289 ± 0.2, L -0.398 ± 0.13, Q -0.167 ± 0.18, K -0.003 ± 0.27, Y -0.443 ± 0.32, S -0.2 ± 0.12, G 0.003 ± 0.11, D -0.096 ± 0.19, I -0.301 ± 0.2, A -0.048 ± 0.16, H -0.671 ± 0.36, W -0.09 ± 0.33, R 0.11 ± 0.13, V -0.202 ± 0.11
T42: L -0.091 ± 0.088, I -0.105 ± 0.18, H 0.123 ± 0.22, S -0.011 ± 0.11, Q 0.062 ± 0.16, Y -0.301 ± 0.19, G 0.122 ± 0.1, N 0.097 ± 0.39, W -0.166 ± 0.13, A 0.055 ± 0.11, E -0.122 ± 0.16, C 0.064 ± 0.14, V 0.073 ± 0.14, P -0.137 ± 0.13, K -0.056 ± 0.18, D -0.015 ± 0.22, M -0.253 ± 0.19
H40: K -0.06 ± 0.14, L -0.02 ± 0.088, R 0.093 ± 0.087, M 0.004 ± 0.13, S 0.156 ± 0.094, P 0.085 ± 0.13, F -0.105 ± 0.15, I -0.018 ± 0.18, A 0.076 ± 0.11, V 0.051 ± 0.1, T 0.185 ± 0.14, Y -0.13 ± 0.15, C 0.046 ± 0.13, Q -0.065 ± 0.18, E -0.065 ± 0.14, W -0.206 ± 0.13
T38: I -0.143 ± 0.16
P39: Q 0.099 ± 0.13, H -0.393 ± 0.33, T -0.005 ± 0.13, L -0.001 ± 0.084, G -0.211 ± 0.1, I -0.013 ± 0.17, Y -0.131 ± 0.14, V 0.092 ± 0.098, A 0.018 ± 0.12, N -0.214 ± 0.21, S 0.069 ± 0.093, W -0.303 ± 0.11, K 0.193 ± 0.15, F 0.025 ± 0.16, C -0.115 ± 0.13, D -0.117 ± 0.18, R 0.008 ± 0.087
E46: R -0.085 ± 0.1, W -0.401 ± 0.18, Y -0.349 ± 0.25, C -0.292 ± 0.16, A -0.176 ± 0.13, Q 0.007 ± 0.17, L -0.124 ± 0.1, F -0.363 ± 0.17, V -0.033 ± 0.12, T -0.083 ± 0.19, G -0.042 ± 0.12, K -0.079 ± 0.17, D -0.415 ± 0.38
I44: V -0.014 ± 0.15, A -0.022 ± 0.17, Q 0.074 ± 0.2, H -0.166 ± 0.25, E 0.146 ± 0.16, W -0.312 ± 0.16, C 0.026 ± 0.2, D -0.38 ± 0.39, F 0.155 ± 0.18, K 0.247 ± 0.46, Y -0.274 ± 0.22, G 0.02 ± 0.14, T -0.273 ± 0.17, N -0.144 ± 0.24, M -0.214 ± 0.21, S 0.045 ± 0.13, R -0.138 ± 0.14, P 0.126 ± 0.19
N36: F 0.044 ± 0.14, K 0.08 ± 0.14, E 0.099 ± 0.12, D -0.093 ± 0.16, W -0.08 ± 0.11, I -0.129 ± 0.14, C -0.054 ± 0.12, S -0.12 ± 0.095, V 0.068 ± 0.09, Q -0.011 ± 0.15, T -0.28 ± 0.14, A -0.097 ± 0.097, G 0.038 ± 0.087, M 0.033 ± 0.13, H 0.313 ± 0.24
W47: A -0.102 ± 0.14
L41: M -0.189 ± 0.12, R 0.2 ± 0.097, W -0.133 ± 0.11, Q 0.007 ± 0.17, C 0.004 ± 0.14, S 0.033 ± 0.093, Y 0.081 ± 0.18, D 0.004 ± 0.19, E -0.015 ± 0.15, V 0.044 ± 0.091, I 0.188 ± 0.21, A 0.117 ± 0.11, P -0.037 ± 0.14, T 0.109 ± 0.13, N 0.128 ± 0.2, K 0.176 ± 0.17, F 0.149 ± 0.12, H -0.247 ± 0.2
Q45: F -0.127 ± 0.17, K 0.268 ± 0.28, D -0.254 ± 0.39, R -0.003 ± 0.1, W 0.233 ± 0.17, E -0.38 ± 0.31, I -0.047 ± 0.19, L -0.093 ± 0.1, N 0.016 ± 0.29, H -0.357 ± 0.23, S -0.037 ± 0.12, V 0.046 ± 0.14, T -0.202 ± 0.15, M -0.015 ± 0.19, Y 0.047 ± 0.2, G 0.037 ± 0.12, P -0.141 ± 0.18
P37: V 0.14 ± 0.1, L -0.023 ± 0.094, G 0.039 ± 0.087, D 0.247 ± 0.3, R 0.032 ± 0.091, A -0.02 ± 0.13, Q 0.097 ± 0.17, E 0.138 ± 0.12, Y -0.451 ± 0.28, T 0.079 ± 0.18, S 0.016 ± 0.1, M -0.098 ± 0.12, C 0.05 ± 0.14, K -0.054 ± 0.17, W -0.012 ± 0.11
F35: Y 0.022 ± 0.15, W -0.288 ± 0.11
